Measurements taken from paper PMC2754851.
Like-named read-outs stand apart in the source and are kept apart here.

What was measured:
Assay in all cases: pull-down
[1] = molecular target: Doc1-4A APC/C (S. cerevisiae) (UniProt P53886)
[2] = molecular target: Cdc27-A2 APC/C (APC/C with Cdc27 L579A) (S. cerevisiae) (UniProt P53886)
[3] = molecular target: Doc1-4A APC/C (S. cerevisiae) (UniProt P53886); remark: listed apart in the source

Doc1-4A APC/C (S. cerevisiae), sequence (P53886 whole entry, looked up): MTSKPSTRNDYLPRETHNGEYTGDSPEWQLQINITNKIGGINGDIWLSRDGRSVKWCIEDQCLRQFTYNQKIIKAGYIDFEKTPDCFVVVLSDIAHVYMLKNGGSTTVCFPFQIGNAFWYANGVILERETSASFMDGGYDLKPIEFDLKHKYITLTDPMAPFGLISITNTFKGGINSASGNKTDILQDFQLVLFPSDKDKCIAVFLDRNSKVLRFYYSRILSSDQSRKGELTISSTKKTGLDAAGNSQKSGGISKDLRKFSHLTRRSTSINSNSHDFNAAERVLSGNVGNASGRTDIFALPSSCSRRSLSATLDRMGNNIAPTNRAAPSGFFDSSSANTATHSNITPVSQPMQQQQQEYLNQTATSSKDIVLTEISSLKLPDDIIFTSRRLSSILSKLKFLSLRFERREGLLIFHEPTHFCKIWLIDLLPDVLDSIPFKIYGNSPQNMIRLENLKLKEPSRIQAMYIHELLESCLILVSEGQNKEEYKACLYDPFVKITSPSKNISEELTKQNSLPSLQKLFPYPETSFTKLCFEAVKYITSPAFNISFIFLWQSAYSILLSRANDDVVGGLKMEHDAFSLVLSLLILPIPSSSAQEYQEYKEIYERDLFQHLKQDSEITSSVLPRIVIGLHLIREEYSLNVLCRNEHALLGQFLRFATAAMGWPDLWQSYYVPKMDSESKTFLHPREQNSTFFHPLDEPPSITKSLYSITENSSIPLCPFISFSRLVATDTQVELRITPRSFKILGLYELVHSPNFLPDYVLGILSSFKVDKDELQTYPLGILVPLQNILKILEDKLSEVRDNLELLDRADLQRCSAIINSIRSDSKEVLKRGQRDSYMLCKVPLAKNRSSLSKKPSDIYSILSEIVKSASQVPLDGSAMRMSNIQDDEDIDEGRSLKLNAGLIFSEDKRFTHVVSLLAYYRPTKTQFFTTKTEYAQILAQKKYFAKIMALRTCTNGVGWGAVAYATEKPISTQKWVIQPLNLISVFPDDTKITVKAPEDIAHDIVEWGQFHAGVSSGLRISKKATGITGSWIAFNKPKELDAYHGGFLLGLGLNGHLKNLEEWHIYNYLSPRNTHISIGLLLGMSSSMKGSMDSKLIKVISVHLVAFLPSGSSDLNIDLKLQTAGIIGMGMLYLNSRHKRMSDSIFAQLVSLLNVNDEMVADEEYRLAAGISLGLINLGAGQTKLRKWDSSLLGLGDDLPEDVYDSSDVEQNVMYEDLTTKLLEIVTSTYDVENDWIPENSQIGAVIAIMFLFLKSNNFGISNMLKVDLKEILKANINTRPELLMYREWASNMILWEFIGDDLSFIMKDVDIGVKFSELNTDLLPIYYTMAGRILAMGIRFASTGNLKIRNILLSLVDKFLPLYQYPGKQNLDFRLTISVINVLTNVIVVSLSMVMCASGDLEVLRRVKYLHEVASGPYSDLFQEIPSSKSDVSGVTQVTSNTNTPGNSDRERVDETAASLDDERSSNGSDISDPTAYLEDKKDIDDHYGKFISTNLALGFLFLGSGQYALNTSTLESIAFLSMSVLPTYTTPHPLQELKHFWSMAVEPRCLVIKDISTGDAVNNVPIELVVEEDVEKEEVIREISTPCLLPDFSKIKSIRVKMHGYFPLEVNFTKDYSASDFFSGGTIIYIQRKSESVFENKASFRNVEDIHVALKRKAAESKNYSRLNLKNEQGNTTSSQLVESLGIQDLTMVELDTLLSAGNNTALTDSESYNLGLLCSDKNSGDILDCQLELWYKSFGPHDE

half-time of dissociation [1]: 20 min
half-time of dissociation [2]: 10 min
koff [2]: 0.0011 s⁻¹
half-time of dissociation [3]: 22 min
B1: in vitro translated Cdh1 (natural protein)
chain: MSTNLNPFMNNTPSSSPLKGSESKRVSKRPISSSSSASLLSSPSRRSRPSTVYGDRYIPSRTDIDFNSIVSISSMASVPALNPSSTEDQVEYQKERQAHETYNTLLKNELFGEMLSKDTVGSESSIDRIKNTRPSTRGNVHAENTTRHGYELERVSTPPPEAAGLEEFSPHSTPVTPRRLFTSQQDEITRPSSNSVRGASLLTYQQRKGRRLSAASLLQSQFFDSMSPVRPDSKQLLLSPGKQFRQIAKVPYRVLDAPSLADDFYYSLIDWSSTDVLAVALGKSIFLTDNNTGDVVHLCDTENEYTSLSWIGAGSHLAVGQANGLVEIYDVMKRKCIRTLSGHIDRVACLSWNNHVLTSGSRDHRILHRDVRMPDPFFETIESHTQEVCGLKWNVADNKLASGGNDNVVHVYEGTSKSPILTFDEHKAAVKAMAWSPHKRGVLATGGGTADRRLKIWNVNTSIKMSDIDSGSQICNMVWSKNTNELVTSHGYSKYNLTLWDCNSMDPIAILKGHSFRVLHLTLSNDGTTVVSGAGDETLRYWKLFDKPKAKVQPNSLIFDAFNQIR
modifications: 35S label
